Patent US20180002431A1, “FAS AND DRs ARE NOVEL MOLECULAR TARGETS OF SENESCENT CELLS” (BioVentures, LLC, priority 2015, published 2018)

Assays:
[1] = system: senescent WI-38 cells induced by IR (IR-SC); assay: Viable cell count, senescent WI-38 cells induced by IR; format: cell-based, human
Description: (§1) FIG. 2A, FIG. 2B, FIG. 2C, FIG. 2D, FIG. 2E, FIG. 2F, FIG. 2G, FIG. 2H, FIG. 2I, FIG. 2J, FIG. 2K, FIG. 2L, FIG. 2M and FIG. 2N depict graphs showing that FasAb and Trail selectively kill senescent cells by induction of apoptosis. (FIG. 2A, FIG. 2B, FIG. 2C, FIG. 2D) Non-senescent cells (NC) and senescent WI-38 cells induced by IR (IR-SC) were incubated with different concentrations of FasAb (Clone CH11, Cat #05-201, Millipore, Mass., USA) or Trail (Cat #310-04, Peprotech, N.J., USA) for 3 days to count number of viable cells. The data presented are means±SD of viable cells as a percent of control without FasAb or Trail treatment from 3 independent experiments. **, p<0.01; ***, p<0.001; and ****, p<0.0001, vs. without FasAb or Trail. (FIG. 2E, FIG. 2F) WI-38 NC and IR-SC were incubated with vehicle (Veh), FasAb (10 ng/ml) or Trail (12.5 ng/ml) for 3 days, and apoptosis in these cells was determined by Annexin V-FITC staining and flow cytometry. […] (FIG. 2G, FIG. 2H) NCs and IR-SCs were incubated with vehicle (Veh), FasAb (10 ng/ml) or Trail (12.5 ng/ml) for 3 days after the cells were preincubated with vehicle (Veh) or 10 μM Q-VD-OPh hydrate (QVD) for 2 hours, and apoptosis in these cells was determined by Annexin V-FITC staining and flow cytometry. […]

[2] = system: senescent WI-38 cells induced by IR (IR-SC); assay: Apoptosis by Annexin V-FITC staining and flow cytometry, WI-38 IR-SC; format: cell-based, human
Description: as §1, with “The data presented are means±SD of viable cells as a percent of control without FasAb or Trail treatment from 3 independent experiments. **, p<0.01; ***, p<0.001; and ****, p<0.0001, vs. without FasAb or Trail.” left out
WI-38 NC and IR-SC were incubated with vehicle (Veh), FasAb (10 ng/ml) or TRAIL (12.5 ng/ml) for 3 days, and apoptosis in these cells was determined by Annexin V-FITC staining and flow cytometry. […]

[3] = system: senescent IMR90 cells induced by IR (IR-SC); assay: Viable cell count, senescent IMR90 cells induced by IR; format: cell-based; conditions: different concentrations, 3 days (FIG. 2K-2N)

CC(C)[C@H](NC(=O)c1ccc2ccccc2n1)C(=O)N[C@@H](CC(=O)O)C(=O)COc1c(F)cccc1F [QVD, Q-VD-OPh hydrate, reference compound]
effect of QVD on the viable cell reduction by FasAb and TRAIL ([1]; IR-SC, 10 μM QVD preincubated 2 hours, then FasAb 10 ng/ml or TRAIL 12.5 ng/ml for 3 days (FIG. 2I, 2J)): blocks the activity observed with FasAb and TRAIL | effect of QVD on apoptosis induced by FasAb and TRAIL ([2]; 10 μM QVD preincubated 2 hours, then FasAb 10 ng/ml or TRAIL 12.5 ng/ml for 3 days (FIG. 2G, 2H)): blocked the ability of FasAb and TRAIL to induce apoptosis

B1: TRAIL: recombinant TNF-related apoptosis-inducing ligand, Cat #310-04, Peprotech (protein, UniProt P50591 1-281, looked up)
Tumor necrosis factor ligand …: MAMMEVQGGPSLGQTCVLIVIFTVLLQSLCVAVTYVYFTNELKQMQDKYSKSGIACFLKEDDSYWDPNDEESMNSPCWQVKWQLRQLVRKMILRTSEETISTVQEKQQNISPLVRERGPQRVAAHITGTRGRSNTLSSPNSKNEKALGRKINSWESSRSGHSFLSNLHLRNGELVIHEKGFYYIYSQTYFRFQEEIKENTKNDKQMVQYIYKYTSYPDPILLMKSARNSCWSKDAEYGLYSIYQGGIFELKENDRIFVSVTNEHLIDMDHEASFFGAFLVG
number of viable cells (reported as apoptosis induction) [3]: induced apoptosis | number of viable cells ([1]; WI-38 IR-SC vs NC, different concentrations, 3 days (FIG. 2A-2D)): significantly reduced the number of viable cells relative to NC | apoptosis (Annexin V-FITC+ cells) ([2]; WI-38 IR-SC, FasAb 10 ng/ml or TRAIL 12.5 ng/ml, 3 days, relative to untreated or non-senescent cells (FIG. 2E, 2F)): significantly increased
